Assay results published in patent US20180051079A1 (MacroGenics, published 2018).

Legend:
CD32B [1] = target: T1, CD32B (UniProt P31994 43-217, limits assumed); assay: assay not named in Table 4
T1 construct: Only the name is printed; also called FcγRIIB
T1 sequence (looked up): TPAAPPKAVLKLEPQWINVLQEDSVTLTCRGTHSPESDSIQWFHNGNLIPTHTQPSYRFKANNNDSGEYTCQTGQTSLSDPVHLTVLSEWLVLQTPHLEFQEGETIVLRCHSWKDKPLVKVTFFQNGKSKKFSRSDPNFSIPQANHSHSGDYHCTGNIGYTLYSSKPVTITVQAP

CD32B [2] = target: T1, CD32B; assay: assay not named in Table 4; cell stands under CD16A F158 but fits CD32B (0.94/1.07 = 0.88)
CD16A V158 = target: T2, CD16A V158 (UniProt P08637 17-208, limits assumed); assay: assay not named in Table 4
T2 construct: Only the name and allotype are printed; also called FcγRIIIA

CD16A F158 = target: T3, CD16A F158 (UniProt P08637 17-208, limits assumed); assay: assay not named in Table 4
T3 construct: Only the name and allotype are printed; also called FcγRIIIA
T3 sequence (P08637 17-208 limits assumed): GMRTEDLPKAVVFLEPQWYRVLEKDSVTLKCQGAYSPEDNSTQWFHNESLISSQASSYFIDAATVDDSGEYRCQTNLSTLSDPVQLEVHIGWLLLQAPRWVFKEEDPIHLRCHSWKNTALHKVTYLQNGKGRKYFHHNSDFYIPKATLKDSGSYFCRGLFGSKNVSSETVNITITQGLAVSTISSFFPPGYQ

T2 sequence (P08637 17-208 F176V limits assumed): as the sequence (P08637 17-208 limits assumed) above, with F160V counted along it

B1: Fc variant D270E G316D P396L R416G (other, UniProt P01857-1 104-330, looked up)
chain: DKTHTCPPCPAPELLGGPSVFLFPPKPKDTLMISRTPEVTCVVVDVSHEEPEVKFNWYVDGVEVHNAKTKPREEQYNSTYRVVSVLTVLHQDWLNDKEYKCKVSNKALPAPIEKTISKAKGQPREPQVYTLPPSRDELTKNQVSLTCLVKGFYPSDIAVEWESNGQPENNYKTTPLVLDSDGSFFLYSKLTVDKSGWQQGNVFSCSVMHEALHNHYTQKSLSLSPGK
notes: domain: Fc; also called D270E P396L G316D R416G
CD32B [1]
  binding relative to wild-type Fc: 1.07
CD32B [2]
  binding relative to wild-type Fc: 1.07

B2: Fc variant R292P V305I P396L (other, UniProt P01857-1 104-330, looked up)
chain: DKTHTCPPCPAPELLGGPSVFLFPPKPKDTLMISRTPEVTCVVVDVSHEDPEVKFNWYVDGVEVHNAKTKPPEEQYNSTYRVVSILTVLHQDWLNGKEYKCKVSNKALPAPIEKTISKAKGQPREPQVYTLPPSRDELTKNQVSLTCLVKGFYPSDIAVEWESNGQPENNYKTTPLVLDSDGSFFLYSKLTVDKSRWQQGNVFSCSVMHEALHNHYTQKSLSLSPGK
notes: domain: Fc; also called Mutant 15
CD16A V158
  binding relative to wild-type Fc: 1.85
CD16A F158
  binding relative to wild-type Fc: 1.9
CD32B [1]
  binding relative to wild-type Fc: 0.92
